{"source": "patent US6313088A", "about": "“8-[(2-hydroxy-4-methoxy benzoyl) amino]-octanoic acid compositions for delivering active agents” (Emisphere Technologies, Inc., priority 1997, dated 2001)", "set-up": "species or system Rats", "conditions": "rat, in vivo, 1 mg/kg", "procedure": "Rats were administered the dosing composition by intracolonic instillation.", "data": [{"substance": "interferon", "values": [{"measurement": "Mean peak serum interferon concentration", "value": "79±100"}]}]}
